Target: Urtica dioica agglutinin (Urtica dioica (stinging nettle))
Experiment: ELISA; microwells coated with serial dilutions (1:2 to 1:16) of UDA in PBS at 4°C overnight; blocked with 0.3% skim milk; 0.5 μg.mL recombinant RBD added for 1 h at RT; detected with rabbit anti-his antibodies and HRP-conjugated secondary antibody, TMB, absorbance at 450 nm; wells without UDA as negative control
Parameters: unit not given here

With “recombinant receptor-binding domain (RBD) of SARS-CoV-2 Spike protein (from UniProt P0DTC2 319-541) (domain or fragment)” the absorbance at 450 nm was 420.

— publication PMC9333307
